Measured values reported in PMC4222252.

Legend:
[1] = biological target: His6-tagged HIV-1 integrase E10R/E13R (HIV-1)
[2] = biological target: His6-tagged HIV-1 integrase E10R/E13R/K42E (HIV-1)
[3] = biological target: His6-tagged HIV-1 integrase E10R/E13R (HIV-1); assay: pull-down
[4] = biological target: His6-tagged HIV-1 integrase E10R/E13R/K42E (HIV-1); assay: pull-down
[5] = biological target: His6-tagged HIV-1 integrase K42E (HIV-1); assay: pull-down

| Substance | concerted integration activity in vitro, percent of WT IN with WT LEDGF/p75 [1] [%] | concerted integration activity in vitro, percent of WT IN with WT LEDGF/p75 [2] [%] | percent of the WT LEDGF/p75 bound by WT IN [3] [%] | percent of the WT LEDGF/p75 bound by WT IN [4] [%] | percent of the WT LEDGF/p75 bound by WT IN [5] [%] |
| --- | --- | --- | --- | --- | --- |
| LEDGF/p75 K401E/K402E/R405E (from UniProt O75475 1-530) (natural protein) | 55 | 78 | 11 | 15 | 42 |
| lens epithelium-derived growth factor (LEDGF)/p75, wild type (from UniProt O75475 1-530) (natural protein) | 53 | 18 |  |  |  |
